Experimental data taken from publication PMC3441633 (PLoS ONE, 2012).

Biological target: T1, Ras (aa 1-166), bacterially expressed and purified (H-Ras) (UniProt P01112 1-166)
T1 construct: H-Ras aa 1-166 (all Ras constructs were the H-Ras isoform); Used loaded with GDP, loaded with GTPγS, or nucleotide-free (incubated with EDTA without added nucleotide); the nucleotide state is told by the assay; also called Ras 1-166; Ras-GDP; source: E. coli BL21 (pQlink Ras 1-166), purified on nickel beads, His tag cleaved with TEV protease
Assay: pull-down; nucleotide-free Ras: 250 nM Ras with 850 nM GST protein on glutathione beads in Loading Buffer (15 mM EDTA, 5 mM MgCl2), 30 min at 30°C, no added nucleotide
Conditions: both partners purified

binding result: binds
B1: GST-PI3KC2β-RBD (aa 368-463) (domain or fragment, UniProt O00750 368-463, looked up)
chain: SPEHLGDEVNLKVTVLCDRLQEALTFTCNCSSTVDLLIYQTLCYTHDDLRNVDVGDFVLKPCGLEEFLQNKHALGSHEYIQYCRKFDIDIRLQLME
notes: also called RBD of PI3KC2β; source: E. coli BL21 (DE3), purified on Glutathione Sepharose beads
